Patent publication CN114573691A (EIGHT HOSPITALS IN AFFILIATED CITY OF GUANGZHOU MEDICAL; …, dated 2022)

B1: 中和抗体YB9-258 (antibody, V domains shown)
VH: EVQLVESGGGLIQPGGSLRLSCAASGLTVSSNYMHWVRQAPGKGLEWVSVLYAGGSAFYADSVKGRFTISRNNSKNTLYLQMNSLRAEDTAIYYCARGLGDYLDSWGQGTLVTVSS
VL: DIQMTQSPSSVSASVGDRVTITCRASQGIGSWLAWYQQKPGKAPQLLIYAASTLQSGVPPRFSGSGSGTDFTLTITSLQPEDFASYYCQQANSVLALTFGGGTKVEIK
B2: 中和抗体YB13-208 (antibody, V domains shown)
V domain 1: QITLKESGPTLVKPTQTLTLTCTFSGLSLSTSGVSVGWIRQPPGKAPEWLALIYWDDDKRYSPSLTSRLSITKDTSKNQVVLTMTNMDPVDTATYYCAHPRYYGDSSGYYWIWGQGTMVTVSS
V domain 2: SYELTQPPSVSVSPGQTARITCSGDALPKQYAYWYQQKPGQAPVVVMYKTSERPSGIPERFSGSSSGTTVTLTISGVQAEDEADYYCQSADSSGFYVFGTGTQVTVL

Molecular target: 新冠病毒SARS-CoV-2原始毒株(WT)S1抗原 (SARS-CoV-2, UniProt P0DTC2 16-685)

Binder	Kd [nM]
B1	0.0717
B2	0.082
